Results taken from the DeepSol protein solubility set.

Experiment: soluble on expression in E. coli; label from the status in PepcDB or PDB records

Sequence	soluble on expression in E. coli
MGSDKIHHHHHHMQDIDEFLKKHRITEIEAIIPDMAGIARGKIIPRSKFETGESMRLPQAVMIQTVTGDYPEDGSLTGVTDPDMVCLPDASTIRLIPWAIDPTAQVIHDCVHFDGTPVEISPRRVLRRVLELYKAKGWKPVIAPELEFYLVDMNKDPDLPLAPPIGRTGRPETGRQSYSIEAVNEFDPLFEDIYEYCEVQDLEVDTLIHEVGAAQMEINFLHGDPLNLADRVFLFKRTVREAALRHHMYATFMSKPMENEPGSAMHVHQSIVDEETGRNLFTGDDGGPTDMFYAYIAGLQKYTPALMPIFAPYINSYRRLSRFMAAPINVQWGYDNRTVGFRVPHSSPVSRRVENRIPGVDCNPYLAIAGTLAAGYLGMTRRLEPTEPLASDGYSLPYQLPRNLEEGLTLMSACEPLAEILGEKFVKAYLALKETEYEAFFRVISSWERKHLLLHV	not soluble
MQRFLDSISAATQAKSPAEHETLVAMADLYAIITCVEYLERAWRANAVSDEDYTRNCSRLIAQFRATRQLVMDDVPSVISFLEEYHLAARAAMNRLQVGVPATVEHANSSDETRRRNFTAAAIQATEAFLTFRDALELGERSVDRLLPYLREILLVLGRMGAVFGTADGDATVQRERIVQWVRRLDAMHAYEQITEEDKRQLAHDVDTLYDTFRRRVGELEM	not soluble
GITPRFSITQDEEFIFLKIFISNIRFSAVGLEIIIQENMIIFHLSPYYLRLRFPHELIDDERSTAQYDSKDECINVKVAKLNKNEYFEDLDLPTKLLARQGDLAGADALTENTDAKKTQKPLIQEVETDGVSNN	soluble
MGSDKIHHHHHHMTWTDLKSSLAAEGYVASDDLAVALQLALSLGRPLLLEGAAGVGKTEIARTLSAVRDTRLIRLQCYEGLDAAQAIYEWNYQRQLLTIRAASEAGETGKAVEDRIFSRDFLLERPLLAAITQEMAPVLLIDEIDRADEEFEAYLLEILSDFQVSIPELGTITAVTRPMVVLTSNGTRDLSDALRRRCLYTYVEYPDRTAELAILKARCPDVEARLAEQIIGFVQRLREEELEKTPGVAEMLDFAAALMGLGIADLTDNPAVLQSTLTTLLKTQSDQAQITREVAGRIAVKAA	not soluble
SKSKEPLLNGFFWNRTSIYYNCQVIIEVTEMLHNASLLIDDIEDSSKLRRGFPVAHSIYGIPSVINSANYVYFLGLEKVLMLEHPEAVRVFTRQLLELHRGQGLDIHWRDTYTCPSEAEYRAMVLQKTGGLFGLAVGLMQLFSDWKRDLKPLLDTLGLYFQIRDDYANLNSKQYSANKSFCEDLTEGKFSFPTIHAIWSHPESTQVQNILRRRTENLDIKRYCVDYLEKVGSFAYTRQTLLDLEVEAYRLIKELGGNPELEALVEHLSRMYKEPEGGATVSQSK	soluble
MSTHGSLSEVERFNLLYKSSFNKVCNFACFYVRNKQASEDITMDAFLQLLETMKVESVDNPMALLITIVKHKSLDYLKTQVRREDTKDDLIQWKQRELAIRISNLEGCNPSYIFSQEIKSIVMKTLNQLPEQTKKVFIMNRFENKSGKEIAQTLGISVKGVDYHMNKALKELRAALKDYLPILTWLCFMNPINKG	not soluble
MGHHHHHHSHMIRDLEYYDSPILRKVAAPVTEITDELRQLVLDMSETMAFYKGVGLAAPQVGQSISLFIMGVERELEDGELVFCDFPRVFINPVITQKSEQLVYGNEGCLSIPGLRGEVARPDKITVSAKNLDGQQFSLALEGFLASIVMHETDHLHGVLYIDRMSDKDKTKQFKNNLEKIRRKYSILRGL	soluble
MNEEILPILTVKDLNAGYLTNEKYIGIIHNINIELNRGKIVGITGLSGSGKTTLLKSILLETHIKSGEIIFNGKPIMPGDTKNYRRSVIYVPQNSLDSLDIIWPIEDQVKKILKQHNVVYDINKVSEIAKLIDLDISMLKLKSFEVSYGTRHKIVLLMSILMAKRDLVVLMDEPTLSQDAITAEGILNIIVKLAKDYGSSFIIVSSSPEPVFYASDFIYIMYGGWIVENGTPNDLSKWPKHPFTYEFINMLPAHKTRDRFPKFPMTEFSENGCPYSIYCKNKIKGCDSHINMFGEGHKYRCLNPVV	not soluble
MSLSTRSRIREERKDPLSALAREYGGSKRNALLKWCQKKTEGYQNIDITNFSSSWNDGLAFCALLHTYLPAHIPYQELNSQDKKRNFTLAFQAAESVGIKSTLDINEMARTERPDWQNVMLYVTAIYKYFETEGHHHHHH	soluble
MGGIFSKKEKSPKSAPVSDQDNAILALKTQRDKMKQMIKRKENCLEKERQLAKQLIKDGRKDRALLLLKKKRYQEKIIDQTLNHLSKIEQMVNDLEFAEVQQRVTDGLRQGNEALKKMNQLFDIDEIDRIMEETKEAAEYQEEISNMLSGQLSNTDVSDVEKELEDLLAAEWGTVQLPEAPSHELPEAERERQKEKEKPRREKIALEA	not soluble
MGSDKIHHHHHHMTEATYNFAYLDEQTKRMIRRAILKGIAIPGYQVPFASREMPMPYGWGTGGVQVTASILGPDDTLKVIDQGSDDTTNAISIRKFFAKTAGVATTTATPDASVIQTRHRIPETPLHEGQVLVYQVPIPEPLRYLEPRETETRRMHALAEYGLMHVKLYEDIAKFGHIATAYAYPVKVAGRYVMDPSPTPKFDNPKMDNCPALQLFGAGREKRIYAIPPYTQVVSLDFEDHPFTRYRQDGCCALCGADDSYLDEIVTDNAGTRMFVCSDTDYCEGRRAQGHTGSETAPMESAHA	not soluble
MSLNCFISSYVRGNFYNRGRISAESLRASDDLIFLNVRPNKDGSLSFENPRIFENGKGVTSWEELIKSVRADVKGTKTKLRLGAASGEWKAMVADEAARVAFAKNIKKILEKNKLDGIDLDFEWAETEKEYEDYSLAILKMREVLGDKYVFSVSLHPVCYKISKEAIAAVDFISYQCYGPSPVRFPMEKYCSDIQMALAYGIPKEKLVAGVPFYGVTKDGSKKTEAYFSFVQDGLITGPAQNEVTYKGDVYVFDGQNNIRAKTRYAMDQQLKGMMSWDLATDMPLNDSRSLFKTMVEELGREGHHHHHH	soluble
MAVAMDNAILENILRQVRPLIGQGKVADYIPALATVDGSRLGIAICTVDGQLFQAGDAQERFSIQSISKVLSLVVAMRHYSEEEIWQRVGKDPSGSPFNSLVQLEMEQGIPRNPFINAGALVVCDMLQGRLSAPRQRMLEVVRGLSGVSDISYDTVVARSEFEHSARNAAIAWLMKSFGNFHHDVTTVLQNYFHYCALKMSCVELARTFVFLANQGKAIHIDEPVVTPMQARQINALMATSGMYQNAGEFAWRVGLPAKSGVGGGIVAIVPHEMAIAVWSPELDDAGNSLAGIAVLEQLTKQLGRSVY	soluble
MTFEAITREWYQRRYDRWSESYRLEMMSTFESDVFPYIGYRPIKEIKPLELMAVLSKLEKRGATEKMRKVRQRCGEVWKYAIITGRAEYNPAPDLASAFAPHKREHLEHHHHHH	not soluble
MPVMSLIEQYEAAIYRGEIDSDPEQREILEHMQRLAEDLQKKSDSWFPWRKKHPIKGLYIYGPVGVGKTYLVDLFYQHIDEEKKARFHFHHFMQQIDAQLRRLQGKKNPLQYIAKEMAKSIRLLCFDEFLVHDVAYAMILAELLQALHHYGVVLVVSSNTRPDELYLNGVHRERFIPAIEIIKKNCEVLNLNQKRDYRLGRQPLLEAYLYPLNEQTQEAMEKQFALITREEDCKGFITVQNRDIPYIKYGTRSIWFAFDVICNFPRSQLDYLEIADRFDNVFLSDVYQLTESHTAQAIMFIHFIDVMYDRGIKLIISADVPAEELYVKGEMKETFKRTLSRLIEMQSVDYLSRHPRRLVKEMLLEHHHHHH	not soluble
MGSDKIHHHHHHMPFITKISTQKKNTERFNIFLDDKYAFSVDADVLVKFELKKGKELDDLDIIEIQYGDEVKKGFNRALDFLSYRMRSTKEVEDHLKKKETSPPVIAEVIHRLNDYKYLNDQEFAAAYVSTHKKTNGKGPDVLFRELRAKGIDDDTIKEALSSFSFEDQTREAVKHVEKLLKKDKKLSTKELKQRAQLQLQRKGFSFDVISAAMDQIEYENDEDTEKEALRLHAEKAFRKYRYDGSYESAMKVKQFLFRKGFSLDLIEQLLQEEEY	not soluble
MAKINLTPKKIYEQEFKTSIRGYDKTEVDEFLDDVIKDYTVYIALVKELQEENAKLKAKATSAPASRPAYASATSEPSHATTNIASASNYDILKRISRLEKEVFGKQIVE	not soluble
